PMC5667739

Target: GII.10 P domain (Vietnam026) (norovirus GII.10 (Vietnam026))
Test: crystal structure

Which stoichiometry N does the source give for “GII.10 P domain (Vietnam026) (domain or fragment)” here?
Its stoichiometry N is 2.
